# According to patent publication US20220135701A1 (Genentech, published 2022):
# Read-outs that look alike come from different tables or passages of the source.
# T1: human MerTK (human, UniProt Q12866 26-499)
# T1 construct: also called HuMER
# T1 sequence: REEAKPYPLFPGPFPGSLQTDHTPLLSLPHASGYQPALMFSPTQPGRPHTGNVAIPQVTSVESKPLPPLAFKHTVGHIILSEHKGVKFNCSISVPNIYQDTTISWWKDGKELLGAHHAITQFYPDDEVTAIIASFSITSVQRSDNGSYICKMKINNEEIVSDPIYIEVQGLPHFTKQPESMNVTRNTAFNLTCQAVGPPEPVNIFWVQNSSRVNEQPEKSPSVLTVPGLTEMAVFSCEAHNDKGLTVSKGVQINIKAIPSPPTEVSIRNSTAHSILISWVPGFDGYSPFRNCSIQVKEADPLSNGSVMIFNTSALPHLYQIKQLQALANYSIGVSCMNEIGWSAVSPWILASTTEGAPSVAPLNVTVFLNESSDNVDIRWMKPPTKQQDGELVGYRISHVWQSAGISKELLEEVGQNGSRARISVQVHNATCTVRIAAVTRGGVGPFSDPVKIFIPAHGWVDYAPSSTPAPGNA
# T2: cynomolgus monkey MerTK (cynomolgus monkey, UniProt A0A2K5V1H9 32-505)
# T2 construct: Soluble analyte in SPR; also called Cyno MerTK
# T2 sequence: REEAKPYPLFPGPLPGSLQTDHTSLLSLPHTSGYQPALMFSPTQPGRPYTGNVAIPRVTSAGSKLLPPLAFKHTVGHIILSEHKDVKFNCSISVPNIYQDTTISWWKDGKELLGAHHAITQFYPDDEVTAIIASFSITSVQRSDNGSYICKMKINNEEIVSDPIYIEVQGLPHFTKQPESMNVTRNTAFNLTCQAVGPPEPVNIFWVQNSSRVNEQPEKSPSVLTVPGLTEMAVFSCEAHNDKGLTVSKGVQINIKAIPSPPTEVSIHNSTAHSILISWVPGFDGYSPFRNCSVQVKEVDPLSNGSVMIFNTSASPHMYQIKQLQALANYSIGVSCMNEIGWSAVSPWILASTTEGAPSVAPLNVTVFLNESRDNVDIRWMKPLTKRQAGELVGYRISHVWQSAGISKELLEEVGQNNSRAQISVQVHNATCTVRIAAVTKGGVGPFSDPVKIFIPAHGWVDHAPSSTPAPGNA
# T3: mouse MerTK (mouse, UniProt Q60805 23-496)
# T3 construct: also called MuMER
# T3 sequence (looked up): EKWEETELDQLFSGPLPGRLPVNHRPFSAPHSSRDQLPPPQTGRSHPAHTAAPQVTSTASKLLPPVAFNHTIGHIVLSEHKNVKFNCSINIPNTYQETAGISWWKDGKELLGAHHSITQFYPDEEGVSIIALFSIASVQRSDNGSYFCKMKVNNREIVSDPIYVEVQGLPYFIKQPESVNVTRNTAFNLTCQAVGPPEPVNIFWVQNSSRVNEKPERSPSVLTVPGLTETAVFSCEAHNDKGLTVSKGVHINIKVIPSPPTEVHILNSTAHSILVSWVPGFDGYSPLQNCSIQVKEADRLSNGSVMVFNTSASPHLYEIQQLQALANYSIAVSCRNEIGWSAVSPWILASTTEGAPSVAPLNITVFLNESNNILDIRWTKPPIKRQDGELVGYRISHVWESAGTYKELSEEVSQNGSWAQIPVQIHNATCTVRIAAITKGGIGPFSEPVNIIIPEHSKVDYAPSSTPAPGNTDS
# T4: rat MerTK (rat, UniProt P57097 23-496, limits assumed)
# T4 construct: Soluble analyte in SPR
# T4 sequence (looked up): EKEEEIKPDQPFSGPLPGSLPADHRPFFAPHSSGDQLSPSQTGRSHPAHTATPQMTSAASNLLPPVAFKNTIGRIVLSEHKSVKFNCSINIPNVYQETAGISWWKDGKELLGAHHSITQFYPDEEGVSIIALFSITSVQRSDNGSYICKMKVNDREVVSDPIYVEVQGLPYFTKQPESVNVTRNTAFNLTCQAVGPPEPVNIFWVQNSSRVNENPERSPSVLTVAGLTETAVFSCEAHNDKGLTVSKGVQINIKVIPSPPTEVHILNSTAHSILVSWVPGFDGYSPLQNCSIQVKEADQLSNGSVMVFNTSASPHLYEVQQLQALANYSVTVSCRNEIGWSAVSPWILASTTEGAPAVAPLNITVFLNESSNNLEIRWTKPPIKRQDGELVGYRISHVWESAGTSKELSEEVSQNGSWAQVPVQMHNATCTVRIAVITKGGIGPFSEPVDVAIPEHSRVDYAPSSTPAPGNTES
# T5: human MerTK on human macrophages (human, UniProt Q12866 21-999)
# T5 sequence: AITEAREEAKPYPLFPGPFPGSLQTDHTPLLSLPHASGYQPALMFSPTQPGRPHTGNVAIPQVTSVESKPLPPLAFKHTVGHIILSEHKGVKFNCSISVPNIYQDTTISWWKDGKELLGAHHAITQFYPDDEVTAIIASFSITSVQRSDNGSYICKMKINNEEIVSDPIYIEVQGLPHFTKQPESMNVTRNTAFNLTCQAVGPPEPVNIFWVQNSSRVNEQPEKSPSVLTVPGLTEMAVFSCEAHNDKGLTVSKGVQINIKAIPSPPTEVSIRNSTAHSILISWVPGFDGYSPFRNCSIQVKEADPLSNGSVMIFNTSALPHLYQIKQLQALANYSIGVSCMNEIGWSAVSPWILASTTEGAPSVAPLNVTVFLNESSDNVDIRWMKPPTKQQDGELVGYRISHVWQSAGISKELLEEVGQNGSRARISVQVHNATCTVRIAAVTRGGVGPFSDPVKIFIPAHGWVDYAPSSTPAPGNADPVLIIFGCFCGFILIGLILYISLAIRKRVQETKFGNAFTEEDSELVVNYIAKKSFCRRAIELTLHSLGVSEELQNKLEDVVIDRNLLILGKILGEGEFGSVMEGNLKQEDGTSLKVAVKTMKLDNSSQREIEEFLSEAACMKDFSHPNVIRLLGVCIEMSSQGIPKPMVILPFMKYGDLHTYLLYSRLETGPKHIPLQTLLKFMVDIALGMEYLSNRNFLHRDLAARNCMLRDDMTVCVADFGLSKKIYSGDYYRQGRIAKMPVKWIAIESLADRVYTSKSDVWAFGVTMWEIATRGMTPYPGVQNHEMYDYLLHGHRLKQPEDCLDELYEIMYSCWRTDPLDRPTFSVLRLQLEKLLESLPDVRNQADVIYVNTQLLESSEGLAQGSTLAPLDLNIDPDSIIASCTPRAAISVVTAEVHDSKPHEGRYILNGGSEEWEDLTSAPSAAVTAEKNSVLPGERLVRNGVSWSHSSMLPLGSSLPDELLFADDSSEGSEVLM
# Assays:
# human MerTK [1] = biological target: T1, human MerTK; experiment: SPR BIAcore T200, Ab captured, 37C
# Description: Each humanized mutation variant was subject to BIAcore analysis to determine the important rabbit residues for binding and stability. Binding affinity determinations were obtained using Surface Plasmon Resonance (SRP) measurements from a BIAcore™-T200 instrument. Briefly, each humanized mutation variant antibody was captured to achieve approximately 100 RU (Response Units). Then, 3-fold serial dilutions of human MerTK (0.4 nM to 100 nM) diluted in HBS-EP buffer (0.01M HEPES pH 7.4, 0.15M NaCl, 3 mM EDTA and 0.05% v/v surfactant P20) was injected into the BIAcore™-T200 instrument at 37° C. with a flow rate of 30 μl/min. Association rates (kₒₙ) and dissociation rates (koff) were calculated using a simple one-to-one Langmuir binding model (BIAcore T200 evaluation software version 2.0). The equilibrium dissociation constant (KD) was calculated as the ratio koff/kₒₙ.
# cynomolgus monkey MerTK [2] = biological target: T2, cynomolgus monkey MerTK; experiment: SPR BIAcore T200, Ab captured, 37C
# Description: (§1) Each rabbit and humanized antibody was subjected to a binding assay to determine its affinity to MerTK derived from various species.
# (§2) All binding affinity determinations were obtained using Surface Plasmon Resonance (SPR) measurements from a BIAcore™-T200 instrument. Briefly, each rabbit or humanized antibody was captured to achieve approximately 100 RU (Response Units). Then, 3-fold serial dilutions of MerTK from various species (0.4 nM to 100 nM) diluted in HBS-EP buffer (0.01M HEPES pH 7.4, 0.15M NaCl, 3 mM EDTA and 0.05% v/v surfactant P20) was injected into the BIAcore™-T200 instrument at 25° C. or 37° C. with a flow rate of 30 μl/min. Association rates (kₒₙ) and dissociation rates (koff) were calculated using a simple one-to-one Langmuir binding model (BIAcore T200 evaluation software version 2.0). The equilibrium dissociation constant (KD) was calculated as the ratio koff/kₒₙ.
# human MerTK [3] = biological target: T1, human MerTK; experiment: SPR BIAcore T200, Ab captured, 37C; remark: listed apart in the source
# Description: as §1, §2
# mouse MerTK [4] = biological target: T3, mouse MerTK; experiment: SPR BIAcore T200, Ab captured, 37C
# Description: as §1, §2
# rat MerTK [5] = biological target: T4, rat MerTK; experiment: SPR BIAcore T200, Ab captured, 37C
# Description: as §1, §2
# cynomolgus monkey MerTK [6] = biological target: T2, cynomolgus monkey MerTK; experiment: SPR BIAcore T200, Ab captured, 37C; remark: listed apart in the source
# Description: as §2
# human MerTK [7] = biological target: T1, human MerTK; experiment: SPR BIAcore T200, Ab captured, 37C; remark: listed apart in the source
# Description: as §2
# mouse MerTK [8] = biological target: T3, mouse MerTK; experiment: SPR BIAcore T200, Ab captured, 37C; remark: listed apart in the source
# Description: as §2
# rat MerTK [9] = biological target: T4, rat MerTK; experiment: SPR BIAcore T200, Ab captured, 37C; remark: listed apart in the source
# Description: as §2
# [10] = biological target: T5, human MerTK on human macrophages; experiment: cell-based or functional assay
Kd (human MerTK [1]) [nM],Kd (cynomolgus monkey MerTK [2]) [nM],Kd (human MerTK [3]) [nM],Kd (mouse MerTK [4]) [nM],Kd (rat MerTK [5]) [nM],Kd (cynomolgus monkey MerTK [6]) [nM],Kd (human MerTK [7]) [nM],Kd (mouse MerTK [8]) [nM],Kd (rat MerTK [9]) [nM],"IC50 (nM), efferocytosis by human macrophages, Average (3 Donors) [10] [nM]","IC50 (nM), efferocytosis by human macrophages, Donor A [10] [nM]","IC50 (nM), efferocytosis by human macrophages, Donor C [10] [nM]","Max Inhibition (%), efferocytosis by human macrophages, Average (3 Donors) [10] [%]","Max Inhibition (%), efferocytosis by human macrophages, Donor A [10] [%]","Max Inhibition (%), efferocytosis by human macrophages, Donor C [10] [%]",Binder
12.2,4.8,11.2,1.4,3.8,4.5,10.6,1.5,3.7,–,–,–,–,–,–,"h9E3.FN.v1 (antibody, V domains shown, also called h9E3.FN.V1 (Parent); 9E3.FN Humanized mAb V1) VH: EQQLVESGGGLIQPGGSLRLSCAVSGFSLSSNAMSWVRQAPGKGLEWIGIISSSGSTYSASWAKGRFTISKDSSKNTMYLQMNSLRAEDTAVYFCARVGFFVGYGAYDYGIIHRLDLWGQGTLVTVSS VL: DAQLTQSPSTLSASVGDRVTITCQSSKSIYNNNWLSWYQQKPGKPPKLLIYDASDLASGVPSRFSGSGSGTEFTLTISSLQPDDFATYYCAGGYSGDSDYAFGGGTKVEIK"
–,2.5,5.8,1.1,3,–,–,–,–,1.02,0.59,1.5,57,58,55,"h9E3.FN.v16 (antibody, V domains shown, Humanized, human IgG1; also called 9E3.FN Humanized polished mAb) VH: EVQLVESGGGLIQPGGSLRLSCAASGFSLSSNAMSWVRQAPGKGLEWVSIISSSGSTYSASWAKGRFTISKDNSKNTLYLQMNSLRAEDTAVYYCARVGFFVGYGAYDYGIIHRLDLWGQGTLVTVSS VL: DIQLTQSPSTLSASVGDRVTITCQSSKSIYNNNWLSWYQQKPGKPPKLLIYDASDLASGVPSRFSGSGSGTEFTLTISSLQPDDFATYYCAGGYSGDSDYAFGGGTKVEIK"
7.3,3,6.7,1.5,4.1,3.1,7.1,1.5,3.6,–,–,–,–,–,–,"h10F7.v1 (antibody, V domains shown, also called h10F7.V1 (Parent); 10F7 Humanized mAb V1) VH: EQQLVESGGGLVQPGGSLRLSCAVSGFSLSGYAMSWVRQAPGKGLEYIGVISSSGSSYYPSWAKGRFTISKDSSKNTVYLQMGSLRAEDMAVYFCARVQFYVGYAVYGYGIIDRLDLWGQGTLVTVSS VL: DAVLTQSPDSLAVSLGERATINCQSSKSVYNNNWLSWYQQKPGQPPKLLIYRASTLESGVPDRFSGSGSGTDFTLTISSLQAEDVAVYFCAGGYSSSSSANAFGGGTKVEIK"
